In CN113234156A:

T1: Mb重组蛋白 (recombinant myoglobin) (UniProt P02144)
T1 sequence (looked up): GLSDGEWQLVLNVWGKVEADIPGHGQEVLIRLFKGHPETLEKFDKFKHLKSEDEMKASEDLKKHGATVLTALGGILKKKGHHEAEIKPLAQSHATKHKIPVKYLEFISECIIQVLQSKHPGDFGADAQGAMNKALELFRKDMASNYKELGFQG


What was measured:
[1] = molecular target: T1, Mb重组蛋白 (recombinant myoglobin); test: indirect ELISA; Mb coated 2 ug/mL; hybridoma supernatant 1/50
[2] = molecular target: T1, Mb重组蛋白 (recombinant myoglobin); test: as above; remark: listed apart in the source
[3] = molecular target: T1, Mb重组蛋白 (recombinant myoglobin); test: indirect ELISA; Mb coated 2 ug/mL; hybridoma supernatant 1/100
[4] = molecular target: T1, Mb重组蛋白 (recombinant myoglobin); test: indirect ELISA; Mb coated 2 ug/mL; hybridoma supernatant 1/200
[5] = molecular target: T1, Mb重组蛋白 (recombinant myoglobin); test: indirect ELISA; Mb coated 2 ug/mL; hybridoma supernatant 1/400

| Binder | OD450 [1] [OD] | OD450 [2] [OD] | OD450 [3] [OD] | OD450 [4] [OD] | OD450 [5] [OD] |
| --- | --- | --- | --- | --- | --- |
| 鼠单克隆抗体 9B2 (antibody, part only; not given: light chain variable domain, V domains shown, part only) VH: QVQLQQSGAALVRPGTSVKVSCKASGYAFTNYLIEWVKQRPGQGLEWIGVINPGSGGTDYNEKFKGKATLTADKSSSTAYMQLSSLTSDDSAVYFCARSSLYGSSRMDYWGQETSVTVSS | 1.7 | 1.69 | 1.63 | 1.46 | 1.27 |
| 鼠单克隆抗体 1E6 (antibody, V domains shown) VH: EVQLQQSGAELVKPGASVKLSCTTSGFNIKDTYIHWVRQRPEQGLEWIGNIDPANGNTKYDPEFQGKATITADTSSNTAYLHLSSLTSEDTAVYYCARVDGSRDFDYWGQGTTLTVSS VL: DIVMTQAAPSVTVTPGESVSISCRSSKSLLYSNGNTYLYWFLQRPGQSPQLLIYRMSNLASGVPDRFSGSGSGTAFTLRISRVEAEDVGVYYCMQHLEYPLTFGGGTKLELK | 1.73 | 1.69 | 1.33 | 1.18 | 0.857 |
